Biological target: T1, lysyl oxidase (LO) (Bos taurus, UniProt P33072)
T1 construct: per mature LO molecule (32 kD); from tissue
T1 sequence (P33072 170-418): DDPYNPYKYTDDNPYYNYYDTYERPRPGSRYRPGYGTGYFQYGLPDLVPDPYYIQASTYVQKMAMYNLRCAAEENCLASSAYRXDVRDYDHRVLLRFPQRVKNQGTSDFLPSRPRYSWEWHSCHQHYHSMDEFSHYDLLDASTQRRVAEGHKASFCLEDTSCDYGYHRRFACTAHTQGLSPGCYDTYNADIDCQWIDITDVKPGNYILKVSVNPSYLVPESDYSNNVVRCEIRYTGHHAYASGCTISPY
Assay: LO-dependent H2O2 release, horseradish peroxidase-coupled fluorescence assay (substrate potential for LO)
Type: biochemical
Conditions: for substrate of LO (in words): factor as sole substrate, LO-dependent H2O2 release in vitro; for Oxidized Lysines per Molecule 37° C. / Oxidized Lysines per Molecule 55° C.: oxidation by LO in vitro; for Oxidized Lysines per Molecule 37° C.: 37° C. (molar ratio of H2O2 released per molecule of substrate)
Procedure: The oxidation of a primary amine substrate by LO yields stoichiometric amounts of the corresponding aldehyde, hydrogen peroxide and ammonia, as shown: RCH2NH2+O2+H2O→RCHO+H2O2+NH3 (Kagan, 1986). To assess the substrate potential of FGF2, LO-dependent H2O2 release was monitored in assays using FGF2 as the sole substrate, using both the optimum temperature for LO activity of 55° C. and the physiological temperature of 37° C. (Trackman et al., 1981).
LO reaction with FGF2 as a substrate was assessed by a horseradish peroxidase-coupled fluorescence assay for H2O2 production. Reaction mixtures contained 0.25 mg of sodium homovanillate(HVA), 40 μg of HRP, and FGF2 at doses as indicated below in 0.05 M sodium borate buffer, pH 8.2, in a final volume of 2 ml. Assays were initiated by the addition of LO to reaction mixtures. H2O2 release was continuously monitored at excitation and emission wavelengths of 315 and 425 nm, respectively, at a constant temperature of 55° C. or 37° C., as specified, in the thermostatted cuvette chamber of an SLM Aminco Bowman Series 2 Luminescence Spectrometer. All activity data were corrected for background rates of H2O2 release determined in complete assay mixtures supplemented with 200 μM BAPN, an irreversible inhibitor of LO. In FIG. 4, solid curves represent the time course of H2O2 release at 55° C. in the reaction of 0.16 μM LO with 0.23 (a), 0.45 (b) and 0.9 (c) μM FGF2, respectively. Dotted curve (d) represents the time course of H2O2 release in the reaction of 0.16 μM LO with 0.9 μM FGF2 at 37° C. The same data were obtained from three separate experiments.
Using the fluorometric assay (Trackman et al., 1981) to monitor LO-dependent H2O2 release in vitro, the substrate potential of other growth factors was also assessed. Major members of the FGF family tested included FGF 1, 4, 5, 6, 7 and EGF (note: All factors are human recombinant forms purchased from R & D Systems, Inc., Minneapolis, Minn.).
A human recombinant disulfide-linked dimer of VEGF165 (MW: 42 kDa)(R & D Systems) as a sole substrate was tested by using the standard in vitro LO catalysis assays as described above for FIG. 4 (Trackman et al., 1981). Curves represent the time course of H2O2 release at 55° C. (a) or 37° C. (b) in the reaction of 0.10 μM LO with 0.45 μM VEGF165. All activity data were corrected for background rates of H2O2 release determined in complete assay mixtures supplemented with the same amounts of LO preincubated with 100 μM BAPN for 15 min at 37° C. The same data were obtained from three separate experiments.
The standard in vitro LO catalysis assays as described above for FIG. 4 (Trackman et al., 1981) using human recombinant PDGF-AB (R & D Systems) as a sole substrate was tested. […] In FIG. 19, curves represent the time course of H2O2 release at 55° C. (a) and 37° C. (b) in the reaction of 0.11 μM LO with 0.46 μM PDGF-AB, respectively. All activity data were corrected for background rates of H2O2 release determined in complete assay mixtures supplemented with the same amounts of LO preincubated with 100 μM BAPN for 15 minutes at 37° C. The same data were obtained from three separate experiments.
To analyze the substrate potential of Tat, the standard in vitro LO catalysis assays as described in FIG. 4 (Trackman et al., 1981) was performed at the optimum temperature of 55° C. and at the physiological temperature of 37° C. A recombinant Tat with 9 lysines in a total of 86 amino acids was used as a sole substrate. FIG. 12A represents a dose and temperature-dependent response. Curves represent the time course of H2O2 release at 55° C. (solid) or 37° C. (dotted) in the reaction of 0.10 μM LO with 0.22 (a and d), 0.43 (b and e) and 0.85 (c and f) μM Tat, respectively. All activity data were corrected for background rates of H2O2 release determined in complete assay mixtures supplemented with the same amounts of LO preincubated with 100 μM BAPN for 15 min at 37° C. […]

B1: FGF4: human recombinant fibroblast growth factor 4 (R & D Systems) (protein, UniProt P08620 31-206, looked up)
Fibroblast growth factor 4: APTAPNGTLEAELERRWESLVALSLARLPVAAQPKEAAVQSGAGDYLLGIKRLRRLYCNVGIGFHLQALPDGRIGGAHADTRDSLLELSPVERGVVSIFGVASRFFVAMSSKGKLYGSPFFTDECTFKEILLPNNYNAYESYKYPGMFIALSKNGKTKKGNRVSPTMKVTHFLPRL
B1 was tested, and the “substrate of LO (in words)” value was “substrates of LO”, the “Oxidized Lysines per Molecule 37° C.” value was 3.6 and the “Oxidized Lysines per Molecule 55° C.” value was 14.5.

B2: FGF5: human recombinant fibroblast growth factor 5 (R & D Systems) (protein, UniProt P12034 21-268, looked up)
Fibroblast growth factor 5: HGEKRLAPKGQPGPAATDRNPRGSSSRQSSSSAMSSSSASSSPAASLGSQGSGLEQSSFQWSPSGRRTGSLYCRVGIGFHLQIYPDGKVNGSHEANMLSVLEIFAVSQGIVGIRGVFSNKFLAMSKKGKLHASAKFTDDCKFRERFQENSYNTYASAIHRTEKTGREWYVALNKRGKAKRGCSPRVKPQHISTHFLPRFKQSEQPELSFTVTVPEKKKPPSPIKPKIPLSAPRKNTNSVKYRLKFRFG
In the case of B2, the “substrate of LO (in words)” value is reported as “substrates of LO”, the “Oxidized Lysines per Molecule 37° C.” value is reported as 10.0 and the “Oxidized Lysines per Molecule 55° C.” value is reported as 18.0.

B3: FGF6: human recombinant fibroblast growth factor 6 (R & D Systems) (protein, UniProt P10767 38-208, looked up)
Fibroblast growth factor 6: SPAGTRANNTLLDSRGWGTLLSRSRAGLAGEIAGVNWESGYLVGIKRQRRLYCNVGIGFHLQVLPDGRISGTHEENPYSLLEISTVERGVVSLFGVRSALFVAMNSKGRLYATPSFQEECKFRETLLPNNYNAYESDLYQGTYIALSKYGRVKRGSKVSPIMTVTHFLPRI
B3 was tested, and the “substrate of LO (in words)” value was “substrates of LO”, the “Oxidized Lysines per Molecule 37° C.” value was 3.1 and the “Oxidized Lysines per Molecule 55° C.” value was 7.2.
